Assay results from patent US10836815B2, “Generation and comparative kinetic analysis of new glycosynthase mutants from Streptococcus pyogenes endoglycosidases for antibody glycoengineering” (UNIVERSITY OF MARYLAND, COLLEGE PARK, priority 2017, dated 2020).

Columns and labels:
Format in all cases: biochemical
[1] = Kinetic measurements (KM, Vmax) of Endo-S/Endo-S2 mutants for SCT-Oxa; conditions: for Km / kcat: Endo-S2 mutants, donor substrate SCT-Oxa, PBS pH 7.4, 30° C.
Description: Using a sialylated glycan oxazoline (SCT-Oxa) as the donor and the deglycosylated rituximab as the acceptor substrate, we measured the kinetic parameters of the enzyme catalyzed glycosylation were measured. A mass spectrometry-based approach with an internal standard was used to estimate the product formation.^31-33.
(§1) Peptide-N-Glycosidase F (PNGase F) treated rituximab was used as the internal standard due to its similarities to the deglycosylated and transferred product in terms of their molecular structures and ionization efficiencies. After PNGase F treatment, a mutation will be introduced into the amino acid sequence of rituximab so the product antibody will not interfere with the reaction via re-glycosylation^35. A standard product S2G2F-rituximab was synthesized following the previously reported procedure^29. […] Serial dilutions containing a gradient of S2G2F-rituximab (0, 0.25, 0.5, 0.75, 1.0, 1.25 and 1.5 μM) were mixed with a stock solution containing 0.67 μM internal standard. These mixed sample solutions were quantified by selected ion monitoring (SIM) to calculate the single-point normalization factor^31. The factor could then be used to calculate the relative amount of the final product N-glycoform for each reaction in the following experiments.
Measurements of KM and Vmax for SCT-oxa. Serial dilutions with a total volume of 10 μL were prepared with a gradient of SCT-oxa concentrations and a constant deglycosylated antibody concentration mixed in PBS, pH 7.4. Each reaction was initiated by adding 1μμL, of Endo-S/S2 mutants with a concentration of 0.1 mg/M1 and the reaction was conducted at 30° C. The concentrations of SCT-oxa were within a range from 6.25 μM to 400 μM. For each reaction, three aliquots were taken at t=1, 2 and 3 min and immediately quenched in 100 μL 0.1% formic acid. The quenched reaction samples were then characterized by ESI-MS, and the concentration of product in each mixture was calculated using the normalization factor, as shown above. […] The KM and Vmax were measured by fitting the initial velocity against the SCT-oxa concentration using the GraphPad Prism7 program. The experiments were conducts in triplicate to determine the error in these measurements.

deglycosylated rituximab [2] = test: Kinetic measurements (KM, Vmax) of Endo-S/Endo-S2 mutants for deglycosylated rituximab
Excerpt: as §1
Measurements of KM and Vmax for SCT-oxa. Serial dilutions with a total volume of 10 μL were prepared with a gradient of SCT-oxa concentrations and a constant deglycosylated antibody concentration mixed in PBS, pH 7.4. Each reaction was initiated by adding 1μμL, of Endo-S/S2 mutants with a concentration of 0.1 mg/M1 and the reaction was conducted at 30° C. The concentrations of SCT-oxa were within a range from 6.25 μM to 400 μM. For each reaction, three aliquots were taken at t=1, 2 and 3 min and immediately quenched in 100 μL 0.1% formic acid. The quenched reaction samples were then characterized by ESI-MS, and the concentration of product in each mixture was calculated using the normalization factor, as shown above. A linear progression curve was confirmed for each reaction by sampling at multiple early time points and plotting them in the same graph, which emphasized that the V0 measured indeed represents the initial rate of each reaction. The KM and Vmax were measured by fitting the initial velocity against the SCT-oxa concentration using the GraphPad Prism7 program. The experiments were conducts in triplicate to determine the error in these measurements.
The KM and Vmax values of both Endo-S and Endo-S2 mutants for the deglycosylated antibody substrate were measured in a similar fashion as to those for SCT-Oxa. In the serial reactions, the concentrations of antibody range from 0.313 μM to 20 μM, whereas the SCT-Oxa concentration was fixed at 400 μM. A similar control reaction was also performed for each concentration to monitor the non-enzymatic side reactions.

deglycosylated rituximab [3] = test: Transglycosylation activity assay of Endo-S and D233 mutants, LC-ESI-MS
Description: (§2) The hydrolytic activity of the mutants generated was evaluated using rituximab as the substrate, and the transglycosylation activity was evaluated using the sugar oxazoline and the deglycosylated rituximab as the donor and acceptor substrates, respectively (Scheme 1).
(§3) The LC-MS characterization of different antibody glycoforms was conducted on an Exactive Plus Orbitrap instrument (Thermo Scientific). The intact antibody sample was analyzed with a Waters XBridge™ BEH300 C4 column (3.5 μm, 2.1×50 mm). The program includes a 9 min linear gradient of 5-90% MeCN containing 0.1% formic acid at a flow rate of 0.4 mL/min. The original mass data were processed through deconvolution and integration through MagTran Software (Amgen).
as §1
(§4) The hydrolytic activity of each Endo-S mutants and the wild-type (0.01 mg/mL) was assayed in PBS (pH 7.4, 10 μl) at 30° C. with synthetic biantennary sialo-complex-type rituximab (1.0 mg/mL, 6.9 μM) as the starting material. Each reaction was terminated at 5 min and an aliquot was taken from the reaction mixture and dissolved in 0.1% formic acid. The relative quantity of the hydrolysis product was calculated through deconvolution and integration of the selected MS peaks. The experimental details of product quantification using LC-MS are illustrated below. The transglycosylation activity of Endo-S was measured in a similar fashion: deglycosylated Rituximab (10.0 mg/mL, 69 μM) was incubated with SCT-Oxa (1.38 mM, 20 eq) under catalysis of Endo-S enzymes (0.01 mg/mL) under the same condition as hydrolysis. The transglycosylation product SCT-Rituximab was analyzed as mentioned above. Both functional assays were repeated twice for each mutant and the wild-type, and the average activity was recorded

rituximab = test: Hydrolysis activity assay of Endo-S and D233 mutants, LC-ESI-MS; conditions: rituximab 1.0 mg/mL as substrate, enzyme 0.01 mg/mL, PBS pH 7.4, 30° C., 5 min, duplicate
Description: as §2, §3, §1, §4

[4] = Endo-S2, glycan oxazoline substrate
[5] = Endo-S2 mutants, acceptor substrate deglycosylated rituximab, SCT-Oxa fixed at 400 μM

Row | Molecule | decrease in substrate affinity (KM) versus D184A [1, 4] | increase in catalytic turnover numbers (kcat) over D184A [1, 4] | increase in kcat/KM over D184A ([1]; Endo-S2, sugar oxazoline substrate) | Km [1] [µM] | kcat [1] [s⁻¹] | catalytic turnover number compared with Endo-S D233M (in words) ([1]; for both the sugar oxazoline and the antibody substrates) | substrate affinity for the deglycosylated antibody (in words) (deglycosylated rituximab [2]; Asp-to-Met versus Asp-to-Ala mutant) | Km (deglycosylated rituximab [2]; [5]) [µM] | kcat (deglycosylated rituximab [2]; [5]) [s⁻¹] | KM value relative to Endo-S2 D184M (deglycosylated rituximab [2]; deglycosylated rituximab) | Transglycosylation Activity (deglycosylated rituximab [3]; deglycosylated rituximab 10.0 mg/mL, SCT-Oxa 1.38 mM (20 eq), enzyme 0.01 mg/mL, PBS pH 7.4, 30° C., duplicate) | Transglycosylation/Hydrolysis Ratio T/H (deglycosylated rituximab [3]; ratio of transglycosylation to hydrolysis activity, Table 1) | Specific Hydrolysis Activity (rituximab)
1 | Endo-S2 D184M (protein) EEKTVQTGKTDQQVGAKLVQEIREGKRGPLYAGYFRTWHDRASTGIDGKQQHPENTMAEVPKEVDILFVFHDHTASDSPFWSELKDSYVHKLHQQGTALVQTIGVNELNGRTGLSKDYPDTPEGNKALAAAIVKAFVTDRGVDGLDIMIEHEFTNKRTPEEDARALNVFKEIAQLIGKNGSDKSKLLIMDTTLSVENNPIFKGIAEDLDYLLRQYYGSQGGEAEVDTINSDWNQYQNYIDASQFMIGFSFFEESASKGNLWFDVNEYDPNNPEKGKDIEGTRAKKYAEWQPSTGGLKAGIFSYAIDRDGVAHVPSTYKNRTSTNLQRHEVDNISHTDYTVSRKLKTLMTEDKRYDVIDQKDIPDPALREQIIQQVGQYKGDLERYNKTLVLTGDKIQNLKGLEKLSKLQKLELRQLSNVKEITPELLPESMKKDAELVMVGMTGLEKLNLSGLNRQTLDGIDVNSITHLTSFDISHNSLDLSEKSEDRKLLMTLMEQVSNHQKITVKNTAFENQKPKGYYPQTYDTKEGHYDVDNAEHDILTDFVFGTVTKRNTFIGDEEAFAIYKEGAVDGRQYVSKDYTYEAFRKDYKGYKVHLTASNLGETVTSKVTATTDETYLVDVSDGEKVVHHMKLNIGSGAIMMENLAKGAKVIGTSGDFEQAKKIFDGEKSDRFFTWGQTNWIAFDLGEINLAKEWRLFNAETNTEIKTDSSLNVAKGRLQILKDTTIDLEKMDIKNRKEYLSNDENWTDVAQMDDAKAIFNSKLSNVLSRYWRFCVDGGASSYYPQYTELQILGQRLSNDVANTLKD | less than 2 fold | more than 15 fold | more than 10 fold | 229 ± 34.8 | 2.7968 ± 0.3417 | significantly higher catalytic turnover number than Endo-S D233M | significantly higher substrate affinity for the antibody than the Endo-S2 D184A mutant | 32.6 ± 6.71 | 0.4973 ± 0.155 | – | – | – | –
2 | Endo-S2 D184A (protein) EEKTVQTGKTDQQVGAKLVQEIREGKRGPLYAGYFRTWHDRASTGIDGKQQHPENTMAEVPKEVDILFVFHDHTASDSPFWSELKDSYVHKLHQQGTALVQTIGVNELNGRTGLSKDYPDTPEGNKALAAAIVKAFVTDRGVDGLDIAIEHEFTNKRTPEEDARALNVFKEIAQLIGKNGSDKSKLLIMDTTLSVENNPIFKGIAEDLDYLLRQYYGSQGGEAEVDTINSDWNQYQNYIDASQFMIGFSFFEESASKGNLWFDVNEYDPNNPEKGKDIEGTRAKKYAEWQPSTGGLKAGIFSYAIDRDGVAHVPSTYKNRTSTNLQRHEVDNISHTDYTVSRKLKTLMTEDKRYDVIDQKDIPDPALREQIIQQVGQYKGDLERYNKTLVLTGDKIQNLKGLEKLSKLQKLELRQLSNVKEITPELLPESMKKDAELVMVGMTGLEKLNLSGLNRQTLDGIDVNSITHLTSFDISHNSLDLSEKSEDRKLLMTLMEQVSNHQKITVKNTAFENQKPKGYYPQTYDTKEGHYDVDNAEHDILTDFVFGTVTKRNTFIGDEEAFAIYKEGAVDGRQYVSKDYTYEAFRKDYKGYKVHLTASNLGETVTSKVTATTDETYLVDVSDGEKVVHHMKLNIGSGAIMMENLAKGAKVIGTSGDFEQAKKIFDGEKSDRFFTWGQTNWIAFDLGEINLAKEWRLFNAETNTEIKTDSSLNVAKGRLQILKDTTIDLEKMDIKNRKEYLSNDENWTDVAQMDDAKAIFNSKLSNVLSRYWRFCVDGGASSYYPQYTELQILGQRLSNDVANTLKD | – | – | – | 121 ± 17.1 | 0.17 ± 0.0395 | – | – | > 680 | – | more than 20 times | – | – | –
3 | Endo-S WT: wild-type Endo-S, endo-β-N-acetylglucosaminidase of Streptococcus pyogenes (SEQ ID NO: 1) (protein, Streptococcus pyogenes) MDKHLLVKRTLGCVCAATLMGAALATHHDSLNTVKAEEKTVQVQKGLPSIDSLHYLSENSKKEFKEELSKAGQESQKVKEILAKAQQADKQAQELAKMKIPEKIPMKPLHGPLYGGYFRTWHDKTSDPTEKDKVNSMGELPKEVDLAFIFHDWTKDYSLFWKELATKHVPKLNKQGTRVIRTIPWRFLAGGDNSGIAEDTSKYPNTPEGNKALAKAIVDEYVYKYNLDGLDVDVEHDSIPKVDKKEDTAGVERSIQVFEEIGKLIGPKGVDKSRLFIMDSTYMADKNPLIERGAPYINLLLVQVYGSQGEKGGWEPVSNRPEKTMEERWQGYSKYIRPEQYMIGFSFYEENAQEGNLWYDINSRKDEDKANGINTDITGTRAERYARWQPKTGGVKGGIFSYAIDRDGVAHQPKKYAKQKEFKDATDNIFHSDYSVSKALKTVMLKDKSYDLIDEKDFPDKALREAVMAQVGTRKGDLERFNGTLRLDNPAIQSLEGLNKFKKLAQLDLIGLSRITKLDRSVLPANMKPGKDTLETVLETYKKDNKEEPATIPPVSLKVSGLTGLKELDLSGFDRETLAGLDAATLTSLEKVDISGNKLDLAPGTENRQIFDTMLSTISNHVGSNEQTVKFDKQKPTGHYPDTYGKTSLRLPVANEKVDLQSQLLFGTVTNQGTLINSEADYKAYQNHKIAGRSFVDSNYHYNNFKVSYENYTVKVTDSTLGTTTDKTLATDKEETYKVDFFSPADKTKAVHTAKVIVGDEKTMMVNLAEGATVIGGSADPVNARKVFDGQLGSETDNISLGWDSKQSIIFKLKEDGLIKHWRFFNDSARNPETTNKPIQEASLQIFNIKDYNLDNLLENPNKFDDEKYWITVDTYSAQGERATAFSNTLNNITSKYWRVVFDTKGDRYSSPVVPELQILGYPLPNADTIMKTVTTAKELSQQKDKFSQKMLDELKIKEMALETSLNSKIFDVTAINANAGVLKDCIEKRQLLKK | – | – | – | – | – | – | – | – | – | – | 25.89 100*(μmol/min/mg) | 9.35 | 2.77 100*(μmol/min/mg)
